From PMC7367192 come the findings set out here.

In general, Kd refers to the constant that tells how readily two partners part at equilibrium. A low value points to tighter binding.

Data set [1] has as its target vWF A1 domain (UniProt P04275). As to the kind of experiment: MST. Particulars: MST: PBS (162 mM ionic strength), optionally +150 mM NaCl; EMSA: 0.5x TA (20 mM ionic strength), +10 or +40 mM NaCl; FCS after shear at 2000-4000 s-1; pH and …. (A gel shift assay detects complexes by their altered migration in electrophoresis.)
The target in data set [2] is vWF A1 domain R1392A/R1395A/R1399A (UniProt P04275). As to the kind of experiment: MST. The note with it: MST: PBS (162 mM ionic strength), optionally +150 mM NaCl; EMSA: 0.5x TA (20 mM ionic strength), +10 or +40 mM NaCl; FCS after shear at 2000-4000 s-1; pH and ….
Data set [3] addresses wt vWF multimer (UniProt P04275). Description: FCS. Particulars: MST: PBS (162 mM ionic strength), optionally +150 mM NaCl, EMSA: 0.5x TA (20 mM ionic strength), +10 or +40 mM NaCl, FCS after shear at 2000-4000 s-1, pH and ….
Data set [4] addresses eGFP full-length vWF dimer (UniProt P04275). Description: EMSA. Particulars: fixed dimer 0.47 mg/ml, DNA titrated; MST: PBS (162 mM ionic strength), optionally +150 mM NaCl; EMSA: 0.5x TA (20 mM ionic strength), +10 or +40 mM NaCl; FCS after shear at 2000-4000 s-1; pH and ….

As to “CATAAATCTTTGAATACCAAGTGTTAGAACCATCAACCATATCAACTTCCTTTATACATCTA / CTACATCACTTTCTTCATTATAAAATAAAAGGAAGTTGATATGGTTGATG [23 bp ds DNA]”, the dissociation constant Kd was determined as 13 µM in data set [1] and 30 µM in data set [2]. The binding signal stood at 23 % bound in data set [3] (shear 4000 s-1) and 21 % bound in data set [3] (shear, 2000 s-1?).
For the sequence “GGCGTGCAGTGCCTTCGGCCGTGCGGTGCCTCCGTCACGCCTAAAATAAAA [ARC1172 ss DNA]”, the Kd in data set [1] worked out at 10 µM; in data set [2], 130 µM; in data set [4], 0.001 µM.
